Data taken from PMC3112237 (Journal of virology, 2011).

B1: Ad3-E/S/Kn (His tag, E-coil dimerization domain, flexible linker, one shaft motif, Ad3 fiber knob) (designed binder)
chain: EVSALEKEVSALEKEVSALEKEVSALEKEVSALEKGSGGGSGGGSGGGSNSIALKNNTLWTGPKPEANCIIEYGKQNPDSKLTLILVKNGGIVNGYVTLMGASDYVNTLFKNKNVSINVELYFDATGHILPDSSSLKTDLELKYKQTADFSARGFMPSTTAYPFVLPNAGTHNENYIFGQCYYKASDGALFPLEVTVMLNKRLPDSRTSYVMTFLWSLNAGLAPETTQATLITSPFTFSYIREDD
B2: Ad3-K/S/Kn (His tag, K-coil dimerization domain, flexible linker, one shaft motif, Ad3 fiber knob) (designed binder)
chain: KVSALKEKVSALKEKVSALKEKVSALKEKVSALKEGSGGGSGGGSGGGSNSIALKNNTLWTGPKPEANCIIEYGKQNPDSKLTLILVKNGGIVNGYVTLMGASDYVNTLFKNKNVSINVELYFDATGHILPDSSSLKTDLELKYKQTADFSARGFMPSTTAYPFVLPNAGTHNENYIFGQCYYKASDGALFPLEVTVMLNKRLPDSRTSYVMTFLWSLNAGLAPETTQATLITSPFTFSYIREDD
modifications: biotinylated (sites not given) only where it was immobilised on streptavidin (Fig. 5A)
B3: recombinant Ad3 fiber knob S3/Kn (three shaft motifs and the knob domain) (domain or fragment)
chain: HSINLPIGNGLQIEQNKLCSKLGNGLTFDSSNSIALKNNTLWTGPKPEANCIIEYGKQNPDSKLTLILVKNGGIVNGYVTLMGASDYVNTLFKNKNVSINVELYFDATGHILPDSSSLKTDLELKYKQTADFSARGFMPSTTAYPFVLPNAGTHNENYIFGQCYYKASDGALFPLEVTVMLNKRLPDSRTSYVMTFLWSLNAGLAPETTQATLITSPFTFSYIREDD
B4: recombinant Ad3 fiber knob S4/Kn (four shaft motifs and the knob domain) (domain or fragment)
chain: LEENIKVNTPLTKSNHSINLPIGNGLQIEQNKLCSKLGNGLTFDSSNSIALKNNTLWTGPKPEANCIIEYGKQNPDSKLTLILVKNGGIVNGYVTLMGASDYVNTLFKNKNVSINVELYFDATGHILPDSSSLKTDLELKYKQTADFSARGFMPSTTAYPFVLPNAGTHNENYIFGQCYYKASDGALFPLEVTVMLNKRLPDSRTSYVMTFLWSLNAGLAPETTQATLITSPFTFSYIREDD
B5: recombinant Ad3 fiber knob S5/Kn (five shaft motifs and the knob domain) (domain or fragment)
chain: GSLQLKVGSGLTVDTTDGSLEENIKVNTPLTKSNHSINLPIGNGLQIEQNKLCSKLGNGLTFDSSNSIALKNNTLWTGPKPEANCIIEYGKQNPDSKLTLILVKNGGIVNGYVTLMGASDYVNTLFKNKNVSINVELYFDATGHILPDSSSLKTDLELKYKQTADFSARGFMPSTTAYPFVLPNAGTHNENYIFGQCYYKASDGALFPLEVTVMLNKRLPDSRTSYVMTFLWSLNAGLAPETTQATLITSPFTFSYIREDD
B6: recombinant Ad3 fiber knob S2/Kn (two shaft motifs and the knob domain) (domain or fragment)
chain: NKLCSKLGNGLTFDSSNSIALKNNTLWTGPKPEANCIIEYGKQNPDSKLTLILVKNGGIVNGYVTLMGASDYVNTLFKNKNVSINVELYFDATGHILPDSSSLKTDLELKYKQTADFSARGFMPSTTAYPFVLPNAGTHNENYIFGQCYYKASDGALFPLEVTVMLNKRLPDSRTSYVMTFLWSLNAGLAPETTQATLITSPFTFSYIREDD
B7: recombinant Ad3 fiber knob S6/Kn (six shaft motifs and the knob domain) (domain or fragment)
chain: GVLSLKCVNPLTTASGSLQLKVGSGLTVDTTDGSLEENIKVNTPLTKSNHSINLPIGNGLQIEQNKLCSKLGNGLTFDSSNSIALKNNTLWTGPKPEANCIIEYGKQNPDSKLTLILVKNGGIVNGYVTLMGASDYVNTLFKNKNVSINVELYFDATGHILPDSSSLKTDLELKYKQTADFSARGFMPSTTAYPFVLPNAGTHNENYIFGQCYYKASDGALFPLEVTVMLNKRLPDSRTSYVMTFLWSLNAGLAPETTQATLITSPFTFSYIREDD
B8: recombinant Ad3 fiber knob S/Kn (one shaft motif and the knob domain) (domain or fragment)
chain: NSIALKNNTLWTGPKPEANCIIEYGKQNPDSKLTLILVKNGGIVNGYVTLMGASDYVNTLFKNKNVSINVELYFDATGHILPDSSSLKTDLELKYKQTADFSARGFMPSTTAYPFVLPNAGTHNENYIFGQCYYKASDGALFPLEVTVMLNKRLPDSRTSYVMTFLWSLNAGLAPETTQATLITSPFTFSYIREDD

Biological target: the molecule itself
Experiment: SDS-PAGE of unboiled samples, Coomassie stain
With B1 the “stoichiometry N” value was 3.
B2 was tested, and the “stoichiometry N” value was 3.

Biological target: the molecule itself
Experiment: SDS-PAGE of unboiled samples with Western blot
With B3 the “stoichiometry N” value was 3.
With B4 the “stoichiometry N” value was 3.
With B5 the “stoichiometry N” value was 3.
For B6, the “stoichiometry N” value was 3.
For B7, the “stoichiometry N” value was 3.
For B8, the “stoichiometry N” value was 3.
